Assay results taken from the DeepSol protein solubility set.

Experiment: soluble on expression in E. coli; label from the status in PepcDB or PDB records

Sequence	soluble on expression in E. coli
MSLDEIAVPILSIITLSSYQPDTIALVDDFSSVSYRNAIIHIETVSEQIASCVANSLTKRVMAYFAGSAEMVLAILGAQLSGAAYIPIEPKTPGSRIDAIADVAKPCMIMTDSQNRQGAQSIAERLGIPLVVLSLKKAGKTLDIFREGYREQPFTVERLTSSTPAVVFFTSGSTGTPKGVELSHLGYYRWFEGVQDLIQVKRGDRVALTTNHSFDLSLGELYLGLMSGATLYVPRQSTVRDPLSLVPWLDQHEITVFQSVPSLMRRILLFRESAGQGLETVRTIMFCGEPLEQQLVKKVKDSFPFSHTRILNLYGPVEASVQVTYCWAEEYLGSEDVIIPLGKPLKHVVVRLAEVDDTSHELQITGDHLALRYLDEKKTRESFINDEAEGTRFYRTGDLGRLNARGDLEYHGRVDDQVKINGYRIELGEIEKTIIDHFKATDCCVLIEKSEGEPSLVAFVVSPNDSVADLRRAVADHLPTYMIPRTVIFIESIPLNTNGKRDKPSLRAEYLKEGHHHHHH	not soluble
MSLTASIPINSNLIVHVGNNVRIDAFGLKARLTGDLNVVQDKQGLGLNGQINIPEGRFHAYGQDLIVRKGELLFSGPPDQPYLNIEAIRNPDATEDDVIAGVRVTGLADEPKAEIFSDPAMSQQAALSYLLRGQGLESDQSDSAAMTSMLIGLGVAQSGQIVGKIGETFGVSNLALDTQGVGDSSQVVVSGYVLPGLQVKYGVGIFDSIATLTLRYRLMPKLYLEAVSGVDQALDLLYQFEFEGHHHHHH	not soluble
MAHHHHHHHRSPTRVNDGVDADEVTFVNRFTVHGAPAEFESVFARTAAFFARQPGFVRHTLLRERDKDNSYVNIAVWTDHDAFRRALAQPGFLPHATALRALSTSEHGLFTARQTLPEGGDTTGSGHR	soluble
MRPKKDGLEDFLRLTPEIKKQLGSLVSDYCNVLNKEFTAGSVEITLRSYKICKAFINEAKAHGREWGGLMATLNICNFWAILRNNRVRRRAENAGNDACSIACPIVMRYVLDHLIVVTDRFFIQAPSNRVMIPATIGTAMYKLLKHSRVRAYTYSKVLGVDRAAIMASGKQVVEHLNRMEKEGLLSSKFKAFCKWVFTYPVLEEMFQTMVSSKTGHLTDDVKDVRALIKTLPRASYSSHAGQRSYVSGVLPACLLSTKSKAVETPILVSGADRMDEELMGNDGGASHTEARYSESGQFHAFTDELESLPSPTMPLKPGAQSADCGDSSSSSSDSGNSDTEQSEREEARAEAPRLRAPKSRRTSRPNRGQTPCPSNAAEPEQPWIAAVHQESDERPIFPHPSKPTFLPPVKRKKGLRDSREGMFLPKPEAGSAISDVFEGREVCQPKRIRPFHPPGSPWANRPLPASLAPTPTGPVHEPVGSLTPAPVPQPLDPAPAVTPEASHLLEDPDEETSQAVKALREMADTVIPQKEEAAICGQMDLSHPPPRGHLDELTTTLESMTEDLNLDSPLTPELNEILDTFLNDECLLHAMHISTGLSIFDTSLF	not soluble
MALNNVSLSSGDQRSRVAYRSSHGDLRPRASALAMVSGDGFLVSRPEAIHLGPRQAVRPSVRAESRRVDGGGRSPREPDGRGRSRQARFSPYPIPAVEPDLLRSVLQQRLIALGGVIAARISV	soluble
MSLTGVLGFYTLEEGPTLPSSFTSFANNTGQLSSTALFMFRISAANPTTIEKFGEFTDQDVRNLVAIAHRNNVKIMPVVHNLLYRPGGTTLAKNVVKTLVSDPRNRNAFALNLVNLIERYGFDGVNIDIEDVFIEDSDNLSLLYTEISEVLRPRGYFFSASVPSRVSDEPFNPFSDPFNYSVIGRAVDEFVVMLYNEFGWPGSPPGPAVTIGWMERVLRYTMSKMPRDKIMAAVSVFGFDFNLTTGRNTYVTYQSAINLARRYNSEIIFNEERQTPMFTYRDAQGNQHEVWFEDARSLRSKIQLAWELGIKGVALWRLGMEDPNIWPMLRNEVVVRKFEGHHHHHH	soluble
MNITFKFNFMSYKHYFSPKHKPEITQAITITEPAIIFRLNKTYSTNLSQQEIYDITRSDWILGHRREKAEYGFAAFKGVVLQVYRIDRWDFSGKVTDVGRQRWFFEGKVATEMQDYINGNISHYFKKGDRSPTKYLNCLEHHHHHH	not soluble
MGSDKIHHHHHHMKYEKIAFFRFFGRLNDFFRNSERIKTHRFTGFQTVKDRIEALGVPHVEVSLITLNGKPVGFDHMVEDGELFFVYPEFQNIEIPEDWLVTPRYIGEPRFVLDIHLGKLARLLRMLGFEAVFGEESDEKLCWMAVKKKAILLSRDTGLLKRKELVFGYYVRNTDPKEQLVEVVERYDLKKWMKPFTRCIECGVELEEVPKEAVKNRVPPKVYGFFNEFARCPVCGRIYWKGSHYDHMVEFIKSNINKG	not soluble
MRAHEIEYKLYGDDMQFVEIELDPEESVIAEAGAMMMMEDYIEMETIFGDGSGPSGGLFGKLMGAGKRLVTGESMFMTVFTNTGHGKRHVSFAAPYPGKIIPVDLTEYQGKVVCQKDAFLCAAKGVSLGIEFTKKIGTGFFGGEGFIMQKLEGDGLAFMHAGGTVYKRELKPGEKLRIDTGCLVAMTKDINYDVEFVGKVKTALFGGEGLFFATLEGPGTVWIQSLTLSRLAARLTSPAAQSTGEGSVLGGLGRLLDGKE	not soluble
MGSDKIHHHHHHMYRLSQYETPLFTALVEHSKRNPIQFHIPGHKKGQGMDPEFREFIGHNALAIDLINIAPLDDLHHPKGMIKEAQDLAAAAFGADHTFFSIQGTSGAIMTMVMSVCGPGDKILVPRNVHKSVMSAIIFSGAKPIFMHPEIDPKLGISHGITIQSVKKALEEHSDAKGLLVINPTYFGFAADLEQIVQLAHSYDIPVLVDEAHGVHIHFHDELPMSAMQAGADMAATSVHKLGGSLTQSSILNVKEGLVNVKHVQSIISMLTTTSTSYILLASLDVARKRLATEGTALIEQTIQLAEQVRDAINDIEHLYCPGKEMLGTDATFNYDPTKIIVSVKDLGITGHQAEVWLREQYNIEVELSDLYNILCLVTFGDTESETNTLIAALQDLSATFKNKADKGVQVQVEIPEIPVLALSPRDAFYSETEVIPFENAAGRIIADFVMVYPPGIPIFTPGEIITQDNLEYIRKNLEAGLPVQGPEDMTLQTLRVIKEYKPIS	not soluble
PDAPRNLQLSLPREAEGVIVGHWAPPIHTHGLIREYIVEYSRSGSKMWASQRAASNFTEIKNLLVNTLYTVRVAAVTSRGIGNWSDSKSITTIKG	soluble
MNLYIASIKLWFKGFKENTERSITYSFEPNKINVITGDSSTGKSSILDIIDYLLLSDNPTIVENIINENVEFYGMNIFLEERSYILMRKAPHSGQGTQDVYWKEQEEYPMPYIQTHSVGEMRTILTRMFYVPQHETKVGNRKYNMTFRHFLPFNYLTEDIISSANTYFDTAFFINRSYDVFLDYALELVNGIQYHNANEIKAKIEKAEIDLKQYQKKHQIAQENATKYKASLTSIYDDALSLNLIPADNFFVRENAHEMLHYIKEALAAYNKLIKNDEDTKKLELLKKERYELNNKLSIYNSLLAEMQKQKSSGKKIQDSLRPITFIKEHIDEVIISPETIELLHLLEKQLVQIKESRKEKPKLPHDFALRHEELKDKLKACESKLKELTILRKTIANPKWLERAIGLKYRLENLKRPKEDTYQASTEQNMISLIESLKIEQKNMSLLPHDVKEKLNSYINKYFHSINGIVDSYPDSTMRYDDDERRISLLNNGEDYPVRNIGSKSNYMFLHLCFFLGLHESIMFHRSKHVGSFLFIDQPSMPYYADKGTLDNDDKKQLIKAFRLLNEFMEEIIGNQNRSFQMILIEHADESYWKELEYFHTTATFSKIAQGGLIPKYIYE	not soluble
MIFEKAVIVDLRTQVLDVPVQETITKDNVPVRVNAVVYFRVVDPVKAVTQVKNYIMATSQISQTTLRSVIGQAHLDELLSERDKLNMQLQRIIDEATDPWGIKVTAVEIKDVELPAGMQKAMARQAEAERERRARITLAEAERQAAEKLREAAEIISEHPMALQLRTLQTISDVAGDKSNLEHHHHHH	soluble
GPGSMTANSKPARFLALAAAKQGTTANVAFNALSVYAKMELSKQTNKMLKVHAATTPLVALIQKRTGIKAAAEAVRQTQTAAKATATVSSYDNSEINPQYIGADIAAKMEQMRKHESYGKIKKDGHTLSAPSTAKFPTAEDSTLRKITISVAVQVLCTGSSNSKWQISGKLEG	soluble
MASFIPNLPSWAKHVDLKFRSALVLSQLFTKSWGHPDVIKQMAKYRRDVMSKRLVMDYVKELNPKIDIVKKYSKNGVTSYEGFFASPHATLFPNHMPGNVGRAHFRAYLPQKPGPVCIHLAGTGDHSYFRRHYLLVDDMLKDGVGSILIQNPFYGDRKPPNQFRSSLENVTDLFVMGAALIAECNHLFNWSETLGYGPFAISGVSMGGFMAQLAGSNSQRPISIVPILAWTTASPSYTEGAISPAVNYSLLQKQLEDPHYVDKIRRIPNQNWLDKMREMTARNGDSEAKNMMRILMDDFTSLEFYPTPIDTSLCHVFLADQDQYVLRNQGTPTYQQLWPNVTVEMMEGYGHVTAYLSKHDLWRRRITELLRRQQQKTI	not soluble
MSLRIKLLLRFKPPFLIPYNYPRYLYSFLLRAIELADKEVAGRIHNNKRDIKFVASKFMPIGSTKRLEQGLLVESGTVELYVGSTEDIILESLVRGLGQGVGMLHVRGQRLLSYEAELEEIPKHLSGKRFKTLSPVSVYHNNPPNGFRQWDLSPVGPPNSPFENEPKVWKELLFENLKSKYMMVYGEPYEGSFDIRVLTKKPKSRRLLVKIDERTGKPIYARVWEFDFKMWGEEELLRVAYELGIGMRNPHGFGMVEVIEGHHHHHH	soluble
MISSMTGFGRSKVESDTFQITVEMKSVNHRFLEMSIRLPKQMMVFEDKIRKIIAQQVRRGRIEVSISIAGEGLVERKLSVNWSLLEQYQSMMEDIKGKFQLQDSITLEQLMAMPEVTAIEEIENVNEHFENSLYEAVRQAAHMLKTMRDGEGERLHKDIAYRLQEISNCVNAIIPHAPIVTQKYRERLENRLKELHNQDLDEQRLLTEVAIFAERCDIHEELVRLQSHLEQFRETLQIEEPVGRKMDFIVQEMHREINTIGSKANDLTISKYVVEMKNNLEKIREQVQNIE	not soluble
MGSDKIHHHHHHMPTPADDLVVIGKIVSVYGIRGEVKVYSFTDPLDNLLDYRRWTLRRDGEIRQAELVRGRLHGKVLAAKLKGLDDREEARTFTGYEICIPRSELPSLEEGEYYWHQLEGLKVIDQGRQLLGVIDHLLETGANDVMVVKPCAGSLDDRERLLPYTGQCVLSIDLAAGEMRVDWDADF	soluble
MSLNIYRAASVLIDEAGKNDFEISLLGKVNDLVYDTKNEYLYAVSQKGLLAKLNASNGDVIWRQSIAPETSQLNYNPVTNFIITVDKDYLYIWNSKNGILDRKIELADGKGKLFEVNKGFVYLNPHTRKFIELDLQASFSISIERDLQLDAISFLTYAEKNYVLFKRDGQFVLQALDHNYAVYGPETVLNVPENAQLLVTEKDVIIYSSNGVIYGIHVSMADISQLLIDEYKTFEWSSIPGKRHGYSITVDSQSTPVTYLFVIIDSEFVLIDEYIHEDTEALGYIHMEDNQTFSRVFAVANQIKFAPATVITIPNQLSRPVFRLFTFAEGEISAIVILDDGTFFSFSNTELVWKREEALAYAINPSILPTTLLTSYQKSIQDEENSSEGHHHHHH	soluble
MSQPYSAVADATGKAYVDIRVCDLLVQQGNMPKGLDSDFQIDGLYVVLRCQEDVRRTSCLWSTAPGACATELQSAAMQLGAAAGAYEAQSDDALVWNEMFRFVVPPALPLSTPAISPRAPHSPPSADGGDPQGGFCAPYTPPLPLSGSASGVAGGLHDIPGGIALPMSTAASGGMRAAGSSGFPVPYTPQPSSLAISTPPLHSAAAQKQPSGGGNGARATEAVASHASLFYPTIELELWRSAPLSENLLGRYKYHVPMELMQGGYALSNLDAVVERVVLLRTKDAPSIMGNLYGWSGHRLSLRLRVQAVGLAPLMAAWSPQQGSEATMTAASTIGSAAYPAPFPTGMLGNTVTGAPPYVAAGVYGAPLGTLNPVLVNLLAPLGVPTGGSGAGQLAPTVMMSMPGGMGGDNLHKPGQPPFFSMFPPASEAPADVGGKMFHPHLPGVLPATPQSSGQGILGDGDLTWQSSTTQPTVYPPYRLPR	not soluble
